The source of these data is paper PMC12615776, “Conformational alteration of DOCK5•ELMO1 signalosome on lipid membrane” (Communications Biology, 2025).

For the experiment, the target named is T1, human ELMO1, full length (residues 1–727), tag cleaved (human, UniProt Q92556 1-727).
T1 construct: human ELMO1, full length, residues 1–727; Purified as a complex with DOCK5; also called engulfment and cell motility 1; source: FreeStyle 293-F cells, co-expressed with DOCK5, purified (Streptavidin Sepharose, TEV cleavage, SEC Superose 6); not shown: FLAG, N-terminal, cleaved
T1 sequence (Q92556 whole entry, the tested form may be a part): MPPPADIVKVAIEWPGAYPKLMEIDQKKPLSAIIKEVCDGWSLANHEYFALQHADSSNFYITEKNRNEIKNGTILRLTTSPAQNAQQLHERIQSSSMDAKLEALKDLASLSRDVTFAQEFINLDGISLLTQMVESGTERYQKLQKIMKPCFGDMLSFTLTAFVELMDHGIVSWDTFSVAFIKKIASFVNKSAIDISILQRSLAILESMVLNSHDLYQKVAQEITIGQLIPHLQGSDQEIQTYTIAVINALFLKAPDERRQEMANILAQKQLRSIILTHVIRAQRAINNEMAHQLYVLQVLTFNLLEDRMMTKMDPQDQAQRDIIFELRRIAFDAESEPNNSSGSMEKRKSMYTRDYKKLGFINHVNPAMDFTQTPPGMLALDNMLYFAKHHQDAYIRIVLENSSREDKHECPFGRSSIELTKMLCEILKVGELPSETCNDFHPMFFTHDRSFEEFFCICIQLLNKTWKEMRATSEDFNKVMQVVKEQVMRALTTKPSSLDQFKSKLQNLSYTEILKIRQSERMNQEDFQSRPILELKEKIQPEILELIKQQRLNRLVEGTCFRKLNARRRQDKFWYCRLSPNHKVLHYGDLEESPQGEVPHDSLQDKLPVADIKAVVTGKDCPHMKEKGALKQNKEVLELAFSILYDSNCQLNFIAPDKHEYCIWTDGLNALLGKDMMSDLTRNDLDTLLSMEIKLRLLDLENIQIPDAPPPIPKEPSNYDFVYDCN
Kind of experiment: cryo-EM structure; purified DOCK5•ELMO1 complex mixed with a two-fold molar excess of Rac1^G15A-His10 and RhoG^Q61L-His10, pre-incubated on ice at least 1 h in 20 mM HEPES-NaOH pH 7.0, 150 mM NaCl, 1 mM MgCl2 (final 0.4 μM); bound to a lipid monolayer-coated grid [67PC/21PA/6PIP3/6DOGS-NTA Ni (mol%)]; single-particle analysis, C2, 6.98 Å (local 7.52 Å). To be noted: both partners purified.

B1: human RhoG (residues 1–191, Q61L mutant), C-terminal His10 (natural protein)
chain: not shown
notes: human RhoG, residues 1–191, Q61L; 10 μM GTP and 1 mM MgCl2 were added during purification to obtain the active form; Anchored to the lipid monolayer through His10 and DOGS-NTA(Ni); also called RhoG^Q61L; constitutively active mutant of RhoG; source: E. coli cell-free protein synthesis, purified (HisTrap, TEV cleavage, second HisTrap, SEC Superdex 75); not shown: N11 (modified natural …)
As for B1, the binding result was “binds”.
